For the test, the target named is GST-aPKCt. Put plainly: co-immunoprecipitation from HEK cells transfected with HA-GSK3β, GST-aPKCt and myc-p62; anti-HA IP, anti-GST blot, densitometry; with against without p62.

Here are results for one substance from patent US7608412.

Hemagglutinin (HA)-tagged GSK3β (enzyme), sequence (P49841 whole entry): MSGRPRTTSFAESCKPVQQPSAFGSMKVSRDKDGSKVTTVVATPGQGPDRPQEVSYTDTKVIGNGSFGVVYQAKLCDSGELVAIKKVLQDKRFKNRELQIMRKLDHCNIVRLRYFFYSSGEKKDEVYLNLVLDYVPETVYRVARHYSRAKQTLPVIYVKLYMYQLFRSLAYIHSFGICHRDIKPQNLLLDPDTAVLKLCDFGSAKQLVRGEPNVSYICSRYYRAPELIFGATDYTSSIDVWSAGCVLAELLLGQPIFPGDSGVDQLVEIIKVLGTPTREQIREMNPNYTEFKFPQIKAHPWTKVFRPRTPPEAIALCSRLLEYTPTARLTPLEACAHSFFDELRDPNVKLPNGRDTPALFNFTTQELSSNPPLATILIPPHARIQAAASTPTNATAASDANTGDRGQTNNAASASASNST

For “Hemagglutinin (HA)-tagged GSK3β (enzyme)”, the fold enhancement of the interaction in the presence of p62 is 2 fold.
